Among the data in the RNAGym collection of RNA variant scans (doi:10.7554/elife.80360) are self-cleavage values, retold here.

B1: CPEB3 Ribozyme (parent)
chain: GGGGGCCACAGCAGAAGCGUUCACGUCGCGGCCCCUGUCAGAUUCUGGUGAAUCUGCGAAUUCUGCUGU

Variants of B1 are the subject of this series. The experiment in a line: self-cleavage, relative activity (ratio to wild type); higher = more cleavage; co-transcriptional.
Take GGGGGCCACAGCAGAAGCGUUCACGUCGCGGCCCCUGUCAGAUUCUGGUGAAUCUGCGAAUUGUGCUGU: the self-cleavage came out at 0.87.
Turning to GGGGGCCACAGCAGAAGCGUUCACGUCGCGGCCCCUGUCAGAUUCUGGUGAAUCUGCGAAUUGUCCUGU, the self-cleavage came out at 0.366.
Regarding GGGGGCCACAGCAGAAGCGUUCACGUCGCGGCCCCUGUCAGAUUCUGGUGAAUCUGCGAAUUUUGUUGU, the self-cleavage worked out at 0.863.
Under GGGGGCCACAGCAGAAGCGUUCACGUCGCGGCCCCUGUCAGAUUCUGGUGAAUCUGCGAAUUUUGAUGU stands 0.473.
Under GGGGGCCACAGCAGAAGCGUUCACGUCGCGGCCCCUGUCAGAUUCUGGUGAAUCUGCGAAUUUUGCGGU stands 0.985; under GGGGGCCACAGCAGAAGCGUUCACGUCGCGGCCCCUGUCAGAUUCUGGUGAAUCUGCGAAUUUUGCCGU, 0.968.
Take GGGGGCCACAGCAGAAGCGUUCACGUCGCGGCCCCUGUCAGAUUCUGGUGAAUCUGCGAAUCCUCCUGU: the self-cleavage stood at 0.488.
With GGGGGCCACAGCAGAAGCGUUCACGUCGCGGCCCCUGUCAGAUUCUGGUGAAUCUGCGAAUGCUGCUAU, the self-cleavage came out at 0.894.
With GGGGGCCACAGCAGAAGCGUUCACGUCGCGGCCCCUGUCAGAUUCUGGUGAAUCUGCGAAUGCUGCUUU, the self-cleavage is 0.683.
As to GGGGGCCACAGCAGAAGCGUUCACGUCGCGGCCCCUGUCAGAUUCUGGUGAAUCUGCGAAUCCAGCUGU, the self-cleavage is 0.507.
Under GGGGGCCACAGCAGAAGCGUUCACGUCGCGGCCCCUGUCAGAUUCUGGUGAAUCUGCGAAUCCCGCUGU stands 0.46; under GGGGGCCACAGCAGAAGCGUUCACGUCGCGGCCCCUGUCAGAUUCUGGUGAAUCUGCGAAUCCGGCUGU, 0.489.
Then GGGGGCCACAGCAGAAGCGUUCACGUCGCGGCCCCUGUCAGAUUCUGGUGAAUCUGCGAAUGCUGAUGU, with 0.376; and GGGGGCCACAGCAGAAGCGUUCACGUCGCGGCCCCUGUCAGAUUCUGGUGAAUCUGCGAAUGCUGUUGU, with 0.579.
Then GGGGGCCACAGCAGAAGCGUUCACGUCGCGGCCCCUGUCAGAUUCUGGUGAAUCUGCGAAUUCAGUUGU, with 0.668; and GGGGGCCACAGCAGAAGCGUUCACGUCGCGGCCCCUGUCAGAUUCUGGUGAAUCUGCGAAUUCAGAUGU, with 0.502.
On to GGGGGCCACAGCAGAAGCGUUCACGUCGCGGCCCCUGUCAGAUUCUGGUGAAUCUGCGAAUUCAGGUGU, for which the self-cleavage was 0.417.
Take GGGGGCCACAGCAGAAGCGUUCACGUCGCGGCCCCUGUCAGAUUCUGGUGAAUCUGCGAAUGCUGCUGU: the self-cleavage stood at 0.925.
GGGGGCCACAGCAGAAGCGUUCACGUCGCGGCCCCUGUCAGAUUCUGGUGAAUCUGCGAAUUGUGCCGU: the self-cleavage was determined as 0.569.
Then GGGGGCCACAGCAGAAGCGUUCACGUCGCGGCCCCUGUCAGAUUCUGGUGAAUCUGCGAAUUGUGCGGU, with 0.752; and GGGGGCCACAGCAGAAGCGUUCACGUCGCGGCCCCUGUCAGAUUCUGGUGAAUCUGCGAAUUCCGCUAU, with 0.931; and GGGGGCCACAGCAGAAGCGUUCACGUCGCGGCCCCUGUCAGAUUCUGGUGAAUCUGCGAAUUCCGCUCU, with 0.911.
With GGGGGCCACAGCAGAAGCGUUCACGUCGCGGCCCCUGUCAGAUUCUGGUGAAUCUGCGAAUCCUGCUCU, the self-cleavage was found to be 0.806.
GGGGGCCACAGCAGAAGCGUUCACGUCGCGGCCCCUGUCAGAUUCUGGUGAAUCUGCGAAUCCUGCUUU: the self-cleavage is 0.934.
Under GGGGGCCACAGCAGAAGCGUUCACGUCGCGGCCCCUGUCAGAUUCUGGUGAAUCUGCGAAUCCUGCUAU stands 1; under GGGGGCCACAGCAGAAGCGUUCACGUCGCGGCCCCUGUCAGAUUCUGGUGAAUCUGCGAAUUGGGCUGU, 0.471; under GGGGGCCACAGCAGAAGCGUUCACGUCGCGGCCCCUGUCAGAUUCUGGUGAAUCUGCGAAUGCGGCUGU, 0.533.
As to GGGGGCCACAGCAGAAGCGUUCACGUCGCGGCCCCUGUCAGAUUCUGGUGAAUCUGCGAAUUAAGCUGU, the self-cleavage was determined as 0.62.
For GGGGGCCACAGCAGAAGCGUUCACGUCGCGGCCCCUGUCAGAUUCUGGUGAAUCUGCGAAUUACGCUGU, the self-cleavage came to 0.639.
Regarding GGGGGCCACAGCAGAAGCGUUCACGUCGCGGCCCCUGUCAGAUUCUGGUGAAUCUGCGAAUUGUGCUGC, the self-cleavage stood at 1.04.
With GGGGGCCACAGCAGAAGCGUUCACGUCGCGGCCCCUGUCAGAUUCUGGUGAAUCUGCGAAUUGUGCUGA, the self-cleavage was 0.864.
Consider GGGGGCCACAGCAGAAGCGUUCACGUCGCGGCCCCUGUCAGAUUCUGGUGAAUCUGCGAAUUCCGGUGU, for which the self-cleavage was found to be 0.555.
In the case of GGGGGCCACAGCAGAAGCGUUCACGUCGCGGCCCCUGUCAGAUUCUGGUGAAUCUGCGAAUUCCGUUGU, the self-cleavage came out at 0.624.
Then GGGGGCCACAGCAGAAGCGUUCACGUCGCGGCCCCUGUCAGAUUCUGGUGAAUCUGCGAAUUCAACUGU, with 0.701; and GGGGGCCACAGCAGAAGCGUUCACGUCGCGGCCCCUGUCAGAUUCUGGUGAAUCUGCGAAUGCUGCUGG, with 1.01; and GGGGGCCACAGCAGAAGCGUUCACGUCGCGGCCCCUGUCAGAUUCUGGUGAAUCUGCGAAUGCUGCUGA, with 0.937.
Then GGGGGCCACAGCAGAAGCGUUCACGUCGCGGCCCCUGUCAGAUUCUGGUGAAUCUGCGAAUGCUGCUGC, with 1.03; and GGGGGCCACAGCAGAAGCGUUCACGUCGCGGCCCCUGUCAGAUUCUGGUGAAUCUGCGAAUUCCCCUGU, with 0.504.
Then GGGGGCCACAGCAGAAGCGUUCACGUCGCGGCCCCUGUCAGAUUCUGGUGAAUCUGCGAAUUCCACUGU, with 0.565.
